Data published in US20240352121A1, “LAIR-1 AGONISTIC ANTIBODIES AND METHODS OF USE THEREOF” (NEXTCURE, INC., priority 2023, published 2024).

How the values were obtained:
MV4-11 cells = assay: Digital spatial imaging of bone and spleen of MV4-11 CDX mice; format: in vivo, NSG mice
From the text: FIGS. 6A-6D display LAIR-1 signaling restricts AML survival signaling pathways in vivo. […] N=3 mice per group. […] N=6 mice per group. FIG. 6C is representative images of CDX mouse bones stained with DAPI and anti-human CD45 used to quantify the number of MV4-11 cells in the indicated region of interest (ROI) (highlighted). ROI area is equal between samples. […] Read counts are normalized to Histone H3 and ribosomal protein S6. N=3-11 quantified tissue regions across 2 isotype-treated or 2 LAIR-1 mAb-treated mice. Error bars represent standard error of mean. P values determined by Student's T test.
Protocols and reagents from NanoString were used for GeoMx digital spatial imaging (DSP). Briefly, formalin-fixed paraffin-embedded (FFPE) sections of tumor and spleen were deparaffinized and rehydrated, antigen-retrieved in citrate buffer, blocked, and stained with the Human Immune Profiling Core and Cell Death Panel overnight at 37 degrees C. Anti-HCD45-Alexaflour 647 antibody (NBP2-34528AF647 from Novus Biologicals, Centennial, CO) was used as a morphology marker at 5 μg/mL to identify MV4-11 cells. After washing, slides were fixed in 4% paraformaldehyde and nuclei were stained with Syto13. Slides were scanned and regions of interest (human CD45 regions) were acquired on a GeoMx DSP instrument (Nanostring, Seattle, WA). Approximately 5 regions of interest (ROIs) were collected per tissue, and samples were multi-plexed and processed on the nCounter Prep Station and Digital Analyzer as recommended. Data were analyzed on DSP Analysis software. Following quality control, data were normalized to housekeeping genes, and statistics were performed using a linear mixed model with a Benjamin-Hochberg correction.

[1] = tested on: LSCs within the bone-marrow of PDX donor animals; assay: PDX secondary transplant model; format: in vivo, NSG-SGM3 mice; conditions: bone-marrow from PDX donors treated for 4 weeks; no further treatment
Description: (§1) Newborn (3-5 day from birth) NSG-SGM3 pups were sub-lethally (200 cGy) irradiated. 12 hours post-irradiation, mice were intra-hepatically transplanted with 0.2e6 AML bone-marrow cells or normal CD34 HSCs from cryopreserved stocks. 6 weeks post-transplant, blood was collected to assess engraftment of progenitor cells via flow cytometry, staining for human CD45, human CD33, and human CD3. Once engraftment of human cells was confirmed, 5 mg/kg of anti-human LAIR-1 mAb or isotype control was intraperitoneally injected weekly for a total of 4 doses. At the indicated timepoints post-treatment, blood was collected to assess the proliferation of AML cells as a measure of LAIR-1 mAb anti-leukemic activity as compared to isotype control. For standard-of-care combination studies, PDX mice were treated with 20 mg/kg venetoclax 5 days on and 2 days off for 5 weeks, and X 1.5 mg/kf-tiw azacytidine upfront one week only. LAIR-1 mAb was treated i.p. once per week for 5 weeks. Blood was harvested as described above to measure leukemic growth and spleens were harvested at endpoint and weighed for assessment of splenomegaly. For secondary transplant studies, mice were engrafted as above. […] Leukemia progression in recipient mice was measured by flow cytometry by quantifying the percent of human CD33^+ human CD45^+ cells in peripheral blood at weeks 4, 6, and 10 weeks post-transplant.

MV4-11-Luc cells = assay: In-vitro phagocytosis (ADCP) assay, mouse bone marrow macrophages with MV4-11-Luc cells; format: cell-based, human; conditions: 20 μg/ml, 16 hours
Description: Mouse BMM was generated with 100 ng/ml M-CSF (Cat #416-ML-500) using seed BMM cells at 1e5/well in 24 well plate. Stain was done with Cell trace violet (Thermofisher). Target MV411 cells were labeled with PKH26 (Sigma #PKH26gl-1kt) according to manufacturer's instructions and cocultured with BMM at ratio of 5:1 in presence of 20 μg/ml h11B3 or control antibody for 16 hours. Phagocytosis was analyzed by flow cytometry.

[2] = tested on: AML patient LSCs engrafted in mice; assay: AML patient-derived xenograft (PDX) model; format: in vivo, NSG-SGM3 mice; conditions: 5 mg/kg i.p. weekly, 4 doses; at any time point
Description: as §1

[3] = tested on: healthy human primary immune cells; assay: Effect on healthy human immune cells in mice reconstituted with human CD34 cells; format: in vivo, NSG-SGM3 mice
Description: NSG-SGM3 mice were purchased from Jackson Laboratory. Mice were engrafted with CD34+ cord blood cells donor #2523. Mice treated weekly beginning 18 weeks after engraftment with anti-human LAIR-1 mAb clone 11B3 in human G1 or G4P format, or control at 100 μg/mouse (5 mg/kg) for 4 weeks. Bleed at weeks 2 (1 day prior to 2nd dose) and 4 (one day prior to 4th dose) for circulating immune cells. Mice were sacrificed 1 week after final dose for analysis of spleen, LN and bone marrow. FIGS. 35A-35B show total body weight and survival of NSG-SGM3 mice reconstituted with human CD34+ cord blood cells and treated 11B3 antibodies. FIGS. 35C-35G show time-course follow-up of the changes in the immune cell numbers in the blood collected from NSG-SGM3 reconstituted with human CD34+ cord blood cells. FIGS. 35H-35I show Analysis of immune cell numbers in the spleen and bone marrow collected from NSG-SGM3 reconstituted with human CD34+ cord blood cells.
For assessment of mAb impacts on normal human immune cells, NSG-SGM3-CD34^+ fully engrafted humanized mice (>25% human CD45+ leukocytes in circulation) were purchased from Jackson Laboratory (stock #2523, Bar Harbor, ME). […] Absolute numbers of cell subpopulations were calculated, as well as percentages of each population subset as a percentage of total CD45^+ cells and total leukocyte gate.

healthy CD34+ cells = assay: NC525 clustering of LAIR-1 in healthy CD34+ cells; format: cell-based, human

B1: LAIR-1 mAb: humanized agonist anti-LAIR-1 mAb, IgG1 backbone; h11B3 VL-2 (SEQ ID NO: 16), h11B3 VH-3 (SEQ ID NO: 27) (antibody, V domains shown)
VH: EVQLVESGGGLVQPGGSLKLSCAASGFTFNTNAMYWVRQAPGKGLEWVGRIRSKSSNYATYYAASVKGRFTISRDDSKNTLYLQMNSLKTEDTAVYYCVRGGSGFFAYWGQGTLVTVSS
VL: DIQMTQSPSSLSASLGDRVTITCKASEDIYIRLAWYQQKPGKAPRLLISTATSLETGVPSRFSGSGSGTDYTFTISSLQPEDIATYYCQQYWSTPYTFGGGTRLEIK
modifications: IgG1 constant regions; Synthetic: h11B3 VH-3; Synthetic: h11B3 VL-2
In the case of B1, the “AML cells (human CD45+ cells) in the bones” value (MV4-11 cells; day 22 post-engraftment) is reported as “reduction”, the “anti-apoptotic BCL-XL” value (MV4-11 cells; in bones but not the spleen) is reported as “decreased levels” and the “anti-apoptotic uncleaved PARP” value (MV4-11 cells; in bones but not the spleen) is reported as “decreased levels”. The “disease development in secondary recipient mice” value [1] was “developed no disease”, the ADCP activity (MV4-11-Luc cells) was “induces ADCP activity” and the “human CD45 CD33 cells in circulation” value [2] was under 10%. For the same molecule, the “depletion, inhibition, or expansion of healthy human primary immune cells” value ([3]; 100 μg/mouse (5 mg/kg) weekly for 4 weeks) was “no depletion, inhibition, or expansion”, the “effects on healthy immune cells in the spleen or the bone-marrow” value ([3]; NSG mice reconstituted with healthy human CD34 stem cells) was “minimal effects” and the “changes in signaling activity” value (healthy CD34+ cells) was “minimal changes”.
